Reference: article PMC7099064
Values belong to the substance of their own block, whether it stands above or below them.

Experiments:
Pin1 (HA-Pin1, GST-Pin1) [1] = biological target: Pin1 (HA-Pin1, GST-Pin1) (UniProt Q13526); test: co-IP of HA-Pin1 with Myc-Kv4.2; conditions: reference: wild type; sites T607
Pin1 (HA-Pin1, GST-Pin1) [2] = biological target: Pin1 (HA-Pin1, GST-Pin1) (UniProt Q13526); test: Affi-Gel peptide pulldown from lysate

- binding against the reference (Pin1 (HA-Pin1, GST-Pin1) [1]): weaker
Substance: Kv4.2 (Myc-Kv4.2; synthetic C-terminal peptides) (from UniProt Q9NZV8) T607A

- binding against the reference (Pin1 (HA-Pin1, GST-Pin1) [2]; reference: non-phospho peptide, sites T602): stronger
Substance: Kv4.2 (Myc-Kv4.2; synthetic C-terminal peptides) (from UniProt Q9NZV8) pT602 peptide

- binding against the reference (Pin1 (HA-Pin1, GST-Pin1) [2]; reference: non-phospho peptide, sites T602,T607): stronger
- binding against the reference (Pin1 (HA-Pin1, GST-Pin1) [2]; reference: pT607 peptide, sites T602): stronger
Substance: Kv4.2 (Myc-Kv4.2; synthetic C-terminal peptides) (from UniProt Q9NZV8) pT602, pT607 peptide

- binding against the reference (Pin1 (HA-Pin1, GST-Pin1) [2]; reference: non-phospho peptide, sites T607): stronger
Substance: Kv4.2 (Myc-Kv4.2; synthetic C-terminal peptides) (from UniProt Q9NZV8) pT607 peptide
